Test results reported in patent US20130129731A1 (SAMSUNG ELECTRONICS, published 2013).
Read-outs that look alike come from different tables or passages of the source.

How the values were obtained:
[1] = target: T1, human c-Met antigen (Biacore analyte) (human, UniProt P08581 25-932, limits assumed); experiment: SPR (Biacore), antibody immobilised on a CM5 chip, c-Met antigen injected
Experimental: (§1) Binding affinity of the IGTML4-4 antibody constructed in Example 1 to c-Met antigens was analyzed using a Biacore (available from GE Healthcare).

[2] = target: T2, mouse c-Met antigen (Biacore analyte) (mouse, UniProt P16056 25-931, limits assumed); experiment: as above
T2 sequence (P16056 25-931 limits assumed): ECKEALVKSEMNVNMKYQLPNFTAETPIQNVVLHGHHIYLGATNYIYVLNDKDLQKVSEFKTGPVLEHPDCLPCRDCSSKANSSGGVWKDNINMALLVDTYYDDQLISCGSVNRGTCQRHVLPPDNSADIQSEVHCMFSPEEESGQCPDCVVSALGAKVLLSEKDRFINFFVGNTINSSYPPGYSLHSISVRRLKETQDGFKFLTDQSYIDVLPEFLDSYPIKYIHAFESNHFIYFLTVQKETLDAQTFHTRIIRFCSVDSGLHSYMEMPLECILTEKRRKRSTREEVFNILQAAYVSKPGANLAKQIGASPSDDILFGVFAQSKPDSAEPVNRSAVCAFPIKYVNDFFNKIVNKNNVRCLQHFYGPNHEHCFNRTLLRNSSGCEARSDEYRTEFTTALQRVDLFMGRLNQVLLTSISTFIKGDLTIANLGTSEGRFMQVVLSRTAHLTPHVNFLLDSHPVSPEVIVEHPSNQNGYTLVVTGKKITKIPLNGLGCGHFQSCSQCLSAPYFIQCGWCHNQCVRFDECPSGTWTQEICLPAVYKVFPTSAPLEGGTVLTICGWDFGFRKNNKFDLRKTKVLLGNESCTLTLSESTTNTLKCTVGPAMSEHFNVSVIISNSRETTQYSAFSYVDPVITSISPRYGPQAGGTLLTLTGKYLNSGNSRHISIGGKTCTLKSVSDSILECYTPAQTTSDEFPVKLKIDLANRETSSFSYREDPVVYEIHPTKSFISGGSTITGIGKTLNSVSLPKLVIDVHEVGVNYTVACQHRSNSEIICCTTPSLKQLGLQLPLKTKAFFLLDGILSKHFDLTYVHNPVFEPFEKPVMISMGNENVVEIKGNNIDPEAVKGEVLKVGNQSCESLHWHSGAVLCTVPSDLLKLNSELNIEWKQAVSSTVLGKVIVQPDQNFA
Experimental: as §1

[3] = target: T1, human c-Met antigen (Biacore analyte); experiment: as above; remark: listed apart in the source
Experimental: as §1

[4] = target: T2, mouse c-Met antigen (Biacore analyte); experiment: as above; remark: listed apart in the source
Experimental: as §1

[5] = target: c-Met on human cells (Caki-1 cells, HUVECs, human primary hepatocytes) (human, UniProt P08581 25-1390); experiment: cell-based or functional assay
Sequence of c-Met on human cells (Caki-1 cells, HUVECs, human primary hepatocytes) (P08581 25-1390): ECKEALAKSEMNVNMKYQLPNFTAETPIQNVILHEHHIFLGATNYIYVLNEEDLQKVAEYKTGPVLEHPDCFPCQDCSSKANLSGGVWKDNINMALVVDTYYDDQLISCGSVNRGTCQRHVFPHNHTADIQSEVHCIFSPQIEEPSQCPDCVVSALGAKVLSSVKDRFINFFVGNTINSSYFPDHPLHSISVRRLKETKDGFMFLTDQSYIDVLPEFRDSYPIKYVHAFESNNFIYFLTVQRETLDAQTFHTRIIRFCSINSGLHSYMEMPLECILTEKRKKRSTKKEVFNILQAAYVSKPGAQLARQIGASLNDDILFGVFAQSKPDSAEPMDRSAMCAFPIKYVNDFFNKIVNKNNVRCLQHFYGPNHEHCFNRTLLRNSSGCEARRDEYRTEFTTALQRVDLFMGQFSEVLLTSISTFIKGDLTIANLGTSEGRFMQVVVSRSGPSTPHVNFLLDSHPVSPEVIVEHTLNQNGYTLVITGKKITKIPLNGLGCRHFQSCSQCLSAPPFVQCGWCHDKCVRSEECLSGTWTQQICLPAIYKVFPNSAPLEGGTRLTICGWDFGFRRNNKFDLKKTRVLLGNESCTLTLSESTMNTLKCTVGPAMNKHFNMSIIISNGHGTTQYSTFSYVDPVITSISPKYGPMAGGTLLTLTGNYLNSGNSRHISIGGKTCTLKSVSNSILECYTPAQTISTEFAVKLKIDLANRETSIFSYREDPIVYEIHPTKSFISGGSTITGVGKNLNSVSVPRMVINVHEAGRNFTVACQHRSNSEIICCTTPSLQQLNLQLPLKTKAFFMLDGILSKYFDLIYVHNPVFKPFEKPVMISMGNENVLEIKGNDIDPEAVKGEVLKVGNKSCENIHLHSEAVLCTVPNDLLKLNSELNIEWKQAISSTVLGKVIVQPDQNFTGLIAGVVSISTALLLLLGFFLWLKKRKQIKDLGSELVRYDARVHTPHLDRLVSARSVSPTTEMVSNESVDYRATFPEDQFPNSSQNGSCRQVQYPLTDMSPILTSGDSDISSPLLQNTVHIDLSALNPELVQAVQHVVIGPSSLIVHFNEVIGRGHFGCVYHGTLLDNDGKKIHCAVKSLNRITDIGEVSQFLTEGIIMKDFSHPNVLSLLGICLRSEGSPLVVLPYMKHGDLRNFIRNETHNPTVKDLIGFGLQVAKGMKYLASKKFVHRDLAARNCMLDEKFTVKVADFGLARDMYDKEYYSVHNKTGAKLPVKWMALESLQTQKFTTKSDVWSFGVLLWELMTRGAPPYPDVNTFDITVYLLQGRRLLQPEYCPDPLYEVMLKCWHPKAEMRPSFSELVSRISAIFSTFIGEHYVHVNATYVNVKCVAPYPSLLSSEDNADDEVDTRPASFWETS

[6] = target: T3, BSA (Takara) (Bos taurus, UniProt P02769); experiment: ELISA, antigen coated on the plate, detection with goat anti-human IgG-HRP, absorbance at 450 nm
T3 construct: commercial protein
T3 sequence (P02769 25-607 limits assumed): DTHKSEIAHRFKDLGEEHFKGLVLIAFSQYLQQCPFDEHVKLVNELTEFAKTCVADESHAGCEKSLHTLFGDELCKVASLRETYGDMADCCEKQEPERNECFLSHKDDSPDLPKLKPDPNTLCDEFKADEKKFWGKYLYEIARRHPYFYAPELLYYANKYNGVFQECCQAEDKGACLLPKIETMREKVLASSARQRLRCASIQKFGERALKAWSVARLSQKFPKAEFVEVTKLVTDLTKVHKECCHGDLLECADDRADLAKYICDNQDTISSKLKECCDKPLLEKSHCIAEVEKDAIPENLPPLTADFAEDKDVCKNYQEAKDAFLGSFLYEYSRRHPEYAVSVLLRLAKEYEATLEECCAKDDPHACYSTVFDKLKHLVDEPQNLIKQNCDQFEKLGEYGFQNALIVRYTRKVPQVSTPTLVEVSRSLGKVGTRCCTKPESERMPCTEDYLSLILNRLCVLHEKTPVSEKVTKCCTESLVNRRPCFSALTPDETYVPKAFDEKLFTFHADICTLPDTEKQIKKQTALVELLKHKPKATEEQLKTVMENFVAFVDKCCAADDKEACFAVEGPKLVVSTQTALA

T1 sequence (P08581 25-932 limits assumed): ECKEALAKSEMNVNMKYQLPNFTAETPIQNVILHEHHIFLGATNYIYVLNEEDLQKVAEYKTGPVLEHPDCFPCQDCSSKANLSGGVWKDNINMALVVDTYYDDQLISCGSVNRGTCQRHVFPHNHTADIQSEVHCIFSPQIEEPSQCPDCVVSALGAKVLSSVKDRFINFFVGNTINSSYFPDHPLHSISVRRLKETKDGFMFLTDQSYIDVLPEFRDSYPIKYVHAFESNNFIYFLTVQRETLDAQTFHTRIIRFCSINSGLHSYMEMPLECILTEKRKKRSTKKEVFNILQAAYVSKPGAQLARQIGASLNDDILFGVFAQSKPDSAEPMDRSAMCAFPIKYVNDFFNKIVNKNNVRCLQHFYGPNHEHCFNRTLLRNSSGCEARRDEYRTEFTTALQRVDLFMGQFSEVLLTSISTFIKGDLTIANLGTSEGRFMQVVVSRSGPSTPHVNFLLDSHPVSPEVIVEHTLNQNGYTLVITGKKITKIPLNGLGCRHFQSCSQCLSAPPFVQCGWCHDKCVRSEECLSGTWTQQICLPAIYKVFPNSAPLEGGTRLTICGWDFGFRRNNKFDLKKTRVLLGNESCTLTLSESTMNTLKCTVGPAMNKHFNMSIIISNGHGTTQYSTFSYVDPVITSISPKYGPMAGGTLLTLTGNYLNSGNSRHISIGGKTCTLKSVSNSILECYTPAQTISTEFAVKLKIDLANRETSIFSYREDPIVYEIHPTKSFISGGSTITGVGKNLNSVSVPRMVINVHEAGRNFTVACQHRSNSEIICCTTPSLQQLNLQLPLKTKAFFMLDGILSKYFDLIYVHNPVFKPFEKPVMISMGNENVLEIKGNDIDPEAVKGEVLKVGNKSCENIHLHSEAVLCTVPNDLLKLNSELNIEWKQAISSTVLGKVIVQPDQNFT

Kd [1]: 0.398 nM
koff [1]: 0.000188 s⁻¹
kon [1]: 471000 M⁻¹ s⁻¹
Kd [2]: 0.304 nM
koff [2]: 0.000168 s⁻¹
kon [2]: 553000 M⁻¹ s⁻¹
Kd [3]: < 1 nM
Kd [4]: < 1 nM
degree of Akt phosphorylation relative to the 5D5 antibody (Caki-1 cells, 5 µg/ml antibody, phospho-AKT1 Ser473 sandwich ELISA) [5]: ~84%
binding result [6]: no binding
B1: IGTML4-4 antibody (antibody, V domains shown)
VH: QVQLLQSGGGLVQPGGSLRVSCAASGFRFSMYVMTWVRQAPGKGLEWVSEISASGASTYYADSVKGRFTMSRDNSKNTVFLQMNSLRVEDTAVYYCARAYRYGMDVWGQGTMVTVSS
VL: DIVMTQSPSSVSASVGDRVTLTCRASQNIGSWLAWYQQKPGNAPKLLIYRASNLRSGVPSRFSGSGSGTDFTLTISSLQPEDFATYFCQQATIFPLTFGGGTRVDIKR
notes: also called anti c-Met antibody
